Test results as given in the Human Domainome abundance scans (Beltran et al. 2025).
± gives the uncertainty stated by the source.

Assay: abundance fitness (aPCA) (normalised: wild type 0, dead -1); higher = more abundant; growth selection in yeast, the domain comes from the species named
Settings: Homo sapiens

Substance | abundance fitness
Scaffold attachment factor B2 L30F, Q14151 | -0.3 ± 0.12
Scaffold attachment factor B2 L30G, Q14151 | -0.281 ± 0.084
Scaffold attachment factor B2 L30I, Q14151 | 0.038 ± 0.14
Scaffold attachment factor B2 L30K, Q14151 | -0.461 ± 0.12
Scaffold attachment factor B2 L30M, Q14151 | -0.036 ± 0.12
Scaffold attachment factor B2 L30P, Q14151 | -0.451 ± 0.14
Scaffold attachment factor B2 L30Q, Q14151 | -0.284 ± 0.14
Scaffold attachment factor B2 L30R, Q14151 | -0.272 ± 0.072
Scaffold attachment factor B2 L30S, Q14151 | -0.233 ± 0.095
Scaffold attachment factor B2 L30T, Q14151 | -0.345 ± 0.14
Scaffold attachment factor B2 L30W, Q14151 | -0.771 ± 0.076
Scaffold attachment factor B2 L30Y, Q14151 | -0.086 ± 0.12
Scaffold attachment factor B2 L33C, Q14151 | -0.758 ± 0.12
Scaffold attachment factor B2 L33D, Q14151 | -0.307 ± 0.12
Scaffold attachment factor B2 L33E, Q14151 | -0.072 ± 0.093
Scaffold attachment factor B2 L33F, Q14151 | -0.106 ± 0.23
Scaffold attachment factor B2 L33G, Q14151 | -0.237 ± 0.076
Scaffold attachment factor B2 L33H, Q14151 | -0.46 ± 0.25
Scaffold attachment factor B2 L33K, Q14151 | -0.319 ± 0.11
Scaffold attachment factor B2 L33M, Q14151 | 0.182 ± 0.11
Scaffold attachment factor B2 L33N, Q14151 | -0.301 ± 0.3
Scaffold attachment factor B2 L33Q, Q14151 | -0.24 ± 0.096
Scaffold attachment factor B2 L33R, Q14151 | -0.331 ± 0.075
Scaffold attachment factor B2 L33S, Q14151 | -0.138 ± 0.097
Scaffold attachment factor B2 L33T, Q14151 | -0.268 ± 0.1
Scaffold attachment factor B2 L33V, Q14151 | -0.204 ± 0.072
Scaffold attachment factor B2 L33W, Q14151 | -0.103 ± 0.096

Substance | abundance fitness
Scaffold attachment factor B2 L33Y, Q14151 | -0.33 ± 0.32
Scaffold attachment factor B2 L38A, Q14151 | -0.316 ± 0.077
Scaffold attachment factor B2 L38C, Q14151 | -0.532 ± 0.1
Scaffold attachment factor B2 L38D, Q14151 | -0.746 ± 0.11
Scaffold attachment factor B2 L38F, Q14151 | -0.455 ± 0.2
Scaffold attachment factor B2 L38G, Q14151 | -0.664 ± 0.07
Scaffold attachment factor B2 L38H, Q14151 | -0.578 ± 0.13
Scaffold attachment factor B2 L38I, Q14151 | -0.141 ± 0.13
Scaffold attachment factor B2 L38K, Q14151 | -0.694 ± 0.12
Scaffold attachment factor B2 L38M, Q14151 | -0.139 ± 0.12
Scaffold attachment factor B2 L38N, Q14151 | -0.509 ± 0.17
Scaffold attachment factor B2 L38P, Q14151 | -0.637 ± 0.1
Scaffold attachment factor B2 L38R, Q14151 | -0.787 ± 0.076
Scaffold attachment factor B2 L38S, Q14151 | -0.506 ± 0.094
Scaffold attachment factor B2 L38T, Q14151 | -0.544 ± 0.099
Scaffold attachment factor B2 L38V, Q14151 | -0.863 ± 0.076
Scaffold attachment factor B2 L38W, Q14151 | -0.791 ± 0.092
Scaffold attachment factor B2 L38Y, Q14151 | -0.612 ± 0.15
Scaffold attachment factor B2 L42A, Q14151 | -0.325 ± 0.085
Scaffold attachment factor B2 L42C, Q14151 | -0.181 ± 0.11
Scaffold attachment factor B2 L42E, Q14151 | -0.381 ± 0.084
Scaffold attachment factor B2 L42F, Q14151 | -0.994 ± 0.16
Scaffold attachment factor B2 L42G, Q14151 | -0.439 ± 0.07
Scaffold attachment factor B2 L42M, Q14151 | -0.505 ± 0.16
Scaffold attachment factor B2 L42N, Q14151 | -0.606 ± 0.12
Scaffold attachment factor B2 L42P, Q14151 | -0.358 ± 0.12
Scaffold attachment factor B2 L42Q, Q14151 | -0.827 ± 0.29

Substance | abundance fitness
Scaffold attachment factor B2 L42R, Q14151 | -0.668 ± 0.077
Scaffold attachment factor B2 L42S, Q14151 | -0.697 ± 0.089
Scaffold attachment factor B2 L42T, Q14151 | -0.44 ± 0.12
Scaffold attachment factor B2 L42W, Q14151 | -1.1 ± 0.083
Scaffold attachment factor B2 L47A, Q14151 | -0.393 ± 0.079
Scaffold attachment factor B2 L47C, Q14151 | -0.339 ± 0.096
Scaffold attachment factor B2 L47D, Q14151 | -0.491 ± 0.11
Scaffold attachment factor B2 L47E, Q14151 | -0.394 ± 0.098
Scaffold attachment factor B2 L47G, Q14151 | -0.616 ± 0.068
Scaffold attachment factor B2 L47H, Q14151 | -0.789 ± 0.25
Scaffold attachment factor B2 L47I, Q14151 | -0.534 ± 0.19
Scaffold attachment factor B2 L47K, Q14151 | -0.246 ± 0.11
Scaffold attachment factor B2 L47M, Q14151 | -0.265 ± 0.13
Scaffold attachment factor B2 L47N, Q14151 | -0.877 ± 0.23
Scaffold attachment factor B2 L47P, Q14151 | -0.194 ± 0.45
Scaffold attachment factor B2 L47Q, Q14151 | -0.287 ± 0.12
Scaffold attachment factor B2 L47R, Q14151 | -0.524 ± 0.076
Scaffold attachment factor B2 L47S, Q14151 | -0.632 ± 0.093
Scaffold attachment factor B2 L47T, Q14151 | -0.409 ± 0.13
Scaffold attachment factor B2 L47V, Q14151 | -0.622 ± 0.083
Scaffold attachment factor B2 L47W, Q14151 | -0.696 ± 0.11
Scaffold attachment factor B2 L47Y, Q14151 | -0.714 ± 0.1
Scaffold attachment factor B2 L56A, Q14151 | -0.374 ± 0.091
Scaffold attachment factor B2 L56D, Q14151 | -0.349 ± 0.13
Scaffold attachment factor B2 L56F, Q14151 | -0.816 ± 0.12
